Measurements published in patent US20110091994A1, “Methods for Screening Compounds for Treating and/or Preventing an Hepatitis C Virus Infection” (priority 2008, published 2011).
Where two headings read alike, the source gives them in different places.

Experiments:
[1] = target: T1, HCV ORFs (Gal4-DB fusions) (Hepatitis C virus genotype 1b, UniProt Q9WMX2); format: binding, HCV genotype 1b, isolate con1; settings: human protein as prey
T1 construct: expressed in transfected cells; host or cells: Saccharomyces cerevisiae MAV203 (IMAP1) / AH109 (IMAP2)

[2] = system: HCV ORFs (Gal4-DB fusions); format: binding, HCV genotype 1b, isolate con1; settings: human protein listed by gene symbol; the value names the HCV protein it interacts with
HCV proteins = target: T2, HCV proteins (Hepatitis C virus genotype 1b, UniProt Q9WMX2); assay: Validation by Y2H pairwise matrices; format: binding;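 further: yeast two-hybrid pairwise tests of interactions first found in Y2H screens of HCV bait proteins against human cDNA libraries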
T2 construct: expressed in transfected cells

[3] = validation of interaction with HCV protein NS3
[4] = validation of interaction with HCV protein CORE
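Wherever IMAP Y2H IMAP1 (number of IST) is given: yeast two-hybrid screens using HCV genotype 1b proteins fused to Gal4-DB as baits against prey cDNA libraries from human spleen and foetal brain, IMAP1 via transformation and IMAP2 via mating.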
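Wherever IMAP Y2H IMAP2 (number of IST) is given: yeast two-hybrid screens using HCV genotype 1b proteins fused to Gal4-DB as baits against prey cDNA libraries from human spleen and foetal brain, IMAP1 via transformation and IMAP2 via mating.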
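Wherever Interaction with viral protein is given: yeast two-hybrid screens using HCV genotype 1b proteins fused to Gal4-DB as baits against prey cDNA libraries from human spleen and foetal brain, IMAP1 via transformation and IMAP2 via mating.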

B1: MORC4 (protein, UniProt Q8TE76 1-937, looked up)
MORC family CW-type zinc …: MLLYRGAPAGPGAPGCGLARPGGGPQAFGIRLSTMSPRYLQSNSSSHTRPFSAIAELLDNAVDPDVSARTVFIDVEEVKNKSCLTFTDDGCGMTPHKLHRMLSFGFTDKVIKKSQCPIGVFGNGFKSGSMRLGKDALVFTKNGGTLTVGLLSQTYLECVQAQAVIVPIVPFNQQNKKMIITEDSLPSLEAILNYSIFNRENDLLAQFDAIPGKKGTRVLIWNIRRNKNGKSELDFDTDQYDILVSDFDTEEKMTGGVTSELPETEYSLRAFCGILYMKPRMKIFLRQKKVTTQMIAKSLANVEYDTYKPTFTNKQVRITFGFSCKNSNQFGIMMYHNNRLIKSFEKVGCQVKPTRGEGVGVIGVIECNFLKPAYNKQDFEYTKEYRLTINALAQKLNAYWKEKTSQDNFETSTVARPIPKVPDQTWVQCDECLKWRKLPGKIDPSMLPARWFCYYNSHPKYRRCSVPEEQELTDEDLCLSKAKKQEQTVEEKKKMPMENENHQVFSNPPKILTVQEMAGLNNKTIGYEGIHSPSVLPSGGEESRSPSLQLKPLDSSVLQFSSKYKWILGEEPVEKRRRLQNEMTTPSLDYSMPAPYRRVEAPVAYPEGENSHDKSSSERSTPPYLFPEYPEASKNTGQNREVSILYPGAKDQRQGSLLPEELEDQMPRLVAEESNRGSTTINKEEVNKGPFVAVVGVAKGVRDSGAPIQLIPFNREELAERRKAVESWNPVPYSVASAAIPAAAIGEKARGYEESEGHNTPKLKNQRELEELKRTTEKLERVLAERNLFQQKVEELEQERNHWQSEFKKVQHELVIYSTQEAEGLYWSKKHMGYRQAEFQILKAELERTKEEKQELKEKLKETETHLEMLQKAQVSYRTPEGDDLERALAKLTRLRIHVSYLLTSVLPHLELREIGYDSEQVDGILYTVLEANHILD
IMAP Y2H IMAP1 (number of IST) ([1]; HCV protein NS3 as bait): 1 | Interaction with viral protein [2]: NS3 | Y2H matrices (HCV proteins; [3]): +

B2: NAP1L1 (protein, UniProt P55209 2-388, looked up)
Nucleosome assembly protein …: ADIDNKEQSELDQDLDDVEEVEEEETGEETKLKARQLTVQMMQNPQILAALQERLDGLVETPTGYIESLPRVVKRRVNALKNLQVKCAQIEAKFYEEVHDLERKYAVLYQPLFDKRFEIINAIYEPTEEECEWKPDEEDEISEELKEKAKIEDEKKDEEKEDPKGIPEFWLTVFKNVDLLSDMVQEHDEPILKHLKDIKVKFSDAGQPMSFVLEFHFEPNEYFTNEVLTKTYRMRSEPDDSDPFSFDGPEIMGCTGCQIDWKKGKNVTLKTIKKKQKHKGRGTVRTVTKTVSNDSFFNFFAPPEVPESGDLDDDAEAILAADFEIGHFLRERIIPRSVLYFTGEAIEDDDDDYDEEGEEADEEGEEEGDEENDPDYDPKKDQNPAEC
IMAP Y2H IMAP2 (number of IST) ([1]; HCV protein NS3 as bait): 1 | IMAP Y2H IMAP1 (number of IST) ([1]; HCV protein NS5A as bait): 1 | IMAP Y2H IMAP2 (number of IST) ([1]; HCV protein NS5A as bait): 31 | Interaction with viral protein [2]: NS3 and NS5A | Y2H matrices (HCV proteins; interaction with HCV protein NS5A): +

B3: MAGED1 (protein, UniProt Q9Y5V3 1-778, looked up)
Melanoma-associated antigen D1: MAQKMDCGAGLLGFQAEASVEDSALLMQTLMEAIQISEAPPTNQATAAASPQSSQPPTANEMADIQVSAAAARPKSAFKVQNATTKGPNGVYDFSQAHNAKDVPNTQPKAAFKSQNATPKGPNAAYDFSQAATTGELAANKSEMAFKAQNATTKVGPNATYNFSQSLNANDLANSRPKTPFKAWNDTTKAPTADTQTQNVNQAKMATSQADIETDPGISEPDGATAQTSADGSQAQNLESRTIIRGKRTRKINNLNVEENSSGDQRRAPLAAGTWRSAPVPVTTQNPPGAPPNVLWQTPLAWQNPSGWQNQTARQTPPARQSPPARQTPPAWQNPVAWQNPVIWPNPVIWQNPVIWPNPIVWPGPVVWPNPLAWQNPPGWQTPPGWQTPPGWQGPPDWQGPPDWPLPPDWPLPPDWPLPTDWPLPPDWIPADWPIPPDWQNLRPSPNLRPSPNSRASQNPGAAQPRDVALLQERANKLVKYLMLKDYTKVPIKRSEMLRDIIREYTDVYPEIIERACFVLEKKFGIQLKEIDKEEHLYILISTPESLAGILGTTKDTPKLGLLLVILGVIFMNGNRASEAVLWEALRKMGLRPGVRHPLLGDLRKLLTYEFVKQKYLDYRRVPNSNPPEYEFLWGLRSYHETSKMKVLRFIAEVQKRDPRDWTAQFMEAADEALDALDAAAAEAEARAEARTRMGIGDEAVSGPWSWDDIEFELLTWDEEGDFGDPWSRIPFTFWARYHQNARSRFPQTFAGPIIGPGGTASANFAANFGAIGFFWVE
IMAP Y2H IMAP1 (number of IST) ([1]; HCV protein CORE as bait): 1 | IMAP Y2H IMAP2 (number of IST) ([1]; HCV protein CORE as bait): 2 | IMAP Y2H IMAP1 (number of IST) ([1]; HCV protein NS3 as bait): 1 | Interaction with viral protein [2]: NS3 and CORE | Y2H matrices (HCV proteins; [4]): + | Y2H matrices (HCV proteins; [3]): +

B4: LZTS2 (protein, UniProt Q9BRK4 1-669, looked up)
Leucine zipper putative tumor …: MAIVQTLPVPLEPAPEAATAPQAPVMGSVSSLISGRPCPGGPAPPRHHGPPGPTFFRQQDGLLRGGYEAQEPLCPAVPPRKAVPVTSFTYINEDFRTESPPSPSSDVEDAREQRAHNAHLRGPPPKLIPVSGKLEKNMEKILIRPTAFKPVLPKPRGAPSLPSFMGPRATGLSGSQGSLTQLFGGPASSSSSSSSSSAADKPLAFSGWASGCPSGTLSDSGRNSLSSLPTYSTGGAEPTTSSPGGHLPSHGSGRGALPGPARGVPTGPSHSDSGRSSSSKSTGSLGGRVAGGLLGSGTRASPDSSSCGERSPPPPPPPPSDEALLHCVLEGKLRDREAELQQLRDSLDENEATMCQAYEERQRHWQREREALREDCAAQAQRAQRAQQLLQLQVFQLQQEKRQLQDDFAQLLQEREQLERRCATLEREQRELGPRLEETKWEVCQKSGEISLLKQQLKESQAELVQKGSELVALRVALREARATLRVSEGRARGLQEAARARELELEACSQELQRHRQEAEQLREKAGQLDAEAAGLREPPVPPATADPFLLAESDEAKVQRAAAGVGGSLRAQVERLRVELQRERRRGEEQRDSFEGERLAWQAEKEQVIRYQKQLQHNYIQMYRRNRQLEQELQQLSLELEARELADLGLAEQAPCICLEEITATEI
IMAP Y2H IMAP1 (number of IST) ([1]; HCV protein NS3 as bait): 8 | Interaction with viral protein [2]: NS3 | Y2H matrices (HCV proteins; [3]): +

B5: LRRTM1 (protein, UniProt Q86UE6 35-522, looked up)
Leucine-rich repeat …: APSGCPQLCRCEGRLLYCEALNLTEAPHNLSGLLGLSLRYNSLSELRAGQFTGLMQLTWLYLDHNHICSVQGDAFQKLRRVKELTLSSNQITQLPNTTFRPMPNLRSVDLSYNKLQALAPDLFHGLRKLTTLHMRANAIQFVPVRIFQDCRSLKFLDIGYNQLKSLARNSFAGLFKLTELHLEHNDLVKVNFAHFPRLISLHSLCLRRNKVAIVVSSLDWVWNLEKMDLSGNEIEYMEPHVFETVPHLQSLQLDSNRLTYIEPRILNSWKSLTSITLAGNLWDCGRNVCALASWLNNFQGRYDGNLQCASPEYAQGEDVLDAVYAFHLCEDGAEPTSGHLLSAVTNRSDLGPPASSATTLADGGEGQHDGTFEPATVALPGGEHAENAVQIHKVVTGTMALIFSFLIVVLVLYVSWKCFPASLRQLRQCFVTQRRKQKQKQTMHQMAAMSAQEYYVDYKPNHIEGALVIINEYGSCTCHQQPARECEV
IMAP Y2H IMAP1 (number of IST) ([1]; HCV protein CORE as bait): 1 | Interaction with viral protein [2]: CORE | Y2H matrices (HCV proteins; [4]): +

B6: NEFL (protein, UniProt P07196 2-543, looked up)
Neurofilament light …: SSFSYEPYYSTSYKRRYVETPRVHISSVRSGYSTARSAYSSYSAPVSSSLSVRRSYSSSSGSLMPSLENLDLSQVAAISNDLKSIRTQEKAQLQDLNDRFASFIERVHELEQQNKVLEAELLVLRQKHSEPSRFRALYEQEIRDLRLAAEDATNEKQALQGEREGLEETLRNLQARYEEEVLSREDAEGRLMEARKGADEAALARAELEKRIDSLMDEISFLKKVHEEEIAELQAQIQYAQISVEMDVTKPDLSAALKDIRAQYEKLAAKNMQNAEEWFKSRFTVLTESAAKNTDAVRAAKDEVSESRRLLKAKTLEIEACRGMNEALEKQLQELEDKQNADISAMQDTINKLENELRTTKSEMARYLKEYQDLLNVKMALDIEIAAYRKLLEGEETRLSFTSVGSITSGYSQSSQVFGRSAYGGLQTSSYLMSTRSFPSYYTSHVQEEQIEVEETIEAAKAEEAKDEPPSEGEAEEEEKDKEEAEEEEAAEEEEAAKEESEEAKEEEEGGEGEEGEETKEAEEEEKKVEGAGEEQAAKKKD
IMAP Y2H IMAP1 (number of IST) ([1]; HCV protein NS3 as bait): 1 | Interaction with viral protein [2]: NS3 | Y2H matrices (HCV proteins; [3]): +

B7: MLXIP (protein, UniProt Q9HAP2 2-919, looked up)
MLX-interacting protein: AADVFMCSPRRPRSRGRQVLLKPQVSEDDDDSDTDEPSPPPASGAATPARAHASAAPPPPRAGPGREEPPRRQQIIHSGHFMVSSPHREHPPKKGYDFDTVNKQTCQTYSFGKTSSCHLSIDASLTKLFECMTLAYSGKLVSPKWKNFKGLKLQWRDKIRLNNAIWRAWYMQYLEKRKNPVCHFVTPLDGSVDVDEHRRPEAITTEGKYWKSRIEIVIREYHKWRTYFKKRLQQHKDEDLSSLVQDDDMLYWHKHGDGWKTPVPMEEDPLLDTDMLMSEFSDTLFSTLSSHQPVAWPNPREIAHLGNADMIQPGLIPLQPNLDFMDTFEPFQDLFSSSRSIFGSMLPASASAPVPDPNNPPAQESILPTTALPTVSLPDSLIAPPTAPSLAHMDEQGCEHTSRTEDPFIQPTDFGPSEPPLSVPQPFLPVFTMPLLSPSPAPPPISPVLPLVPPPATALNPPAPPTFHQPQKFAGVNKAPSVITHTASATLTHDAPATTFSQSQGLVITTHHPAPSAAPCGLALSPVTRPPQPRLTFVHPKPVSLTGGRPKQPHKIVPAPKPEPVSLVLKNARIAPAAFSGQPQAVIMTSGPLKREGMLASTVSQSNVVIAPAAIARAPGVPEFHSSILVTDLGHGTSSPPAPVSRLFPSTAQDPLGKGEQVPLHGGSPQVTVTGPSRDCPNSGQASPCASEQSPSPQSPQNNCSGKSDPKNVAALKNRQMKHISAEQKRRFNIKMCFDMLNSLISNNSKLTSHAITLQKTVEYITKLQQERGQMQEEARRLREEIEELNATIISCQQLLPATGVPVTRRQFDHMKDMFDEYVKTRTLQNWKFWIFSIIIKPLFESFKGMVSTSSLEELHRTALSWLDQHCSLPILRPMVLSTLRQLSTSTSILTDPAQLPEQASKAVTRIGKRLGES
IMAP Y2H IMAP1 (number of IST) ([1]; HCV protein NS3 as bait): 1 | Interaction with viral protein [2]: NS3 | Y2H matrices (HCV proteins; [3]): +
